Drawing on the RNAGym collection of RNA variant scans (doi:10.7554/elife.80360), this text covers self-cleavage for 167 variants.

First the molecules themselves.
B1: HDV Ribozyme (parent)
chain: GGCCGGCAUGGUCCCAGCCUCCUCGCUGGCGCCGGCUGGGCAACAUUCCGAGGGGACCGUCCCCUCGGUAAUGGCGAAUGGGACCCA

In this data set the parent is B1. In words: self-cleavage, relative activity (ratio to wild type); higher = more cleavage; co-transcriptional.
For the variant C14U U47A, the self-cleavage worked out at 0.906. As for C14U G39U, the figure is 0.895; as for C15A G67C, 0.782; as for C15G A56G, 0.712. For the variant C15G C21A, the self-cleavage turned out to be 0.0707. As for C15G C21U, the figure is 0.0405; as for C15G C21G, 0.

Take C15G U47A: the self-cleavage came to 0.723. With C15G A78U, the self-cleavage amounted to 0.375. Turning to C15G A78C, the self-cleavage is 0. For C14U G34A, the self-cleavage is 0.17. Consider C15G C41G, for which the self-cleavage was 0.289. In the case of C15A A45U, the self-cleavage was 0.475. As for C14U C75G, the figure is 0.353; as for C15G G53A, 0.353; as for C14U C26U, 1.07. Take C15A G38A: the self-cleavage came to 0.0978. For the variant C15U A77C, the self-cleavage was found to be 0.185. The value for C15A G52U was 0.844; that for C14U G80A was 0.486; that for C15G G39U was 0.128. Regarding C15A C61U, the self-cleavage came out at 0.752. With C15A C49A, the self-cleavage came out at 0.974. The value for C14U U79G was 0.89; that for C15G A87U was 0.475. Consider C15G G40U, for which the self-cleavage was 0.354. The value for C15G G40A was 0.762; that for C15G A43G was 0.237; that for C15A C86U was 0.831. The value for C15A C86G was 0.748.

As for C15A U46G, the self-cleavage was found to be 0.383. With C15A C75A, the self-cleavage came out at 0.115. As for C14U U46G, the figure is 0.875; as for C15U A16C, 1.33; as for C15U A16G, 1.05. The value for C14U C84U was 0.845; that for C14U C32A was 0.101; that for C15A U23G was 0.185. With C15A U23A, the self-cleavage worked out at 0.604. As for C14U G73U, the figure is 0.309; as for C15G G34U, 0.19; as for C15A C58A, 0.332.

For the variant C14U G76A, the self-cleavage is 1.49. The value for C15G C85G was 0.196; that for C15G C85U was 0.453. As for C15U C64A, the figure is 0.636; as for C15A C36U, 0.253; as for C15A C36A, 0.0692.

With C15A G25A, the self-cleavage is 0.0504.

In the case of C15G C32U, the self-cleavage is 0.437. Turning to C14U U23A, the self-cleavage was 1.04. For the variant C14U C62A, the self-cleavage was 1.06. The value for C15A A43U was 0.212.

For the variant C14U U37A, the self-cleavage is 0.151. As for C14U G67C, the figure is 0.929; as for C15U A78C, 0.166; as for C15A G54A, 0.504. Regarding C15A G54U, the self-cleavage came out at 0.585. As for C15G U20A, the figure is 0.128; as for C15U C36A, 0.208; as for C15G G74U, 0.0875.

Consider C15G G52A, for which the self-cleavage is 0.807. As to C15U C21G, the self-cleavage was 0.0898. On to C15A C84U, for which the self-cleavage amounted to 0.665. As for C15U C85U, the figure is 0.906. Regarding C15U C85A, the self-cleavage came out at 0.962. Consider C15A C26G, for which the self-cleavage was determined as 0.415.

For the variant C15A C26A, the self-cleavage turned out to be 0.529. The value for C15G G54U was 0.59; that for C15A C63G was 0.539. With C15U A43G, the self-cleavage amounted to 0.138. As for C14U U69G, the figure is 0.755. The value for C15U C49U was 0.997. As for C14U G55A, the figure is 1.21; as for C15G C58A, 0.437; as for C14U G31A, 0.475. In the case of C15U C61G, the self-cleavage turned out to be 0.898. As for C15A G28A, the figure is 0.136. As for C15U C30G, the figure is 0.0707; as for C15U C18U, 0.44; as for C15G U69C, 0.65. With C15G U60G, the self-cleavage was found to be 0.712. Take C15G G59C: the self-cleavage was 0.767.

As for C15G G59A, the self-cleavage stood at 0.831. As for C15U A83U, the self-cleavage came out at 0.26. As for C15U A83G, the figure is 0.45; as for C15A G39A, 0.095; as for C15A C18U, 0.295. As for C15G A83G, the figure is 0.185; as for C15A G29A, 0.117.

C15G G35C: the self-cleavage came to 0.0791. The value for C15G G35A was 0.196; that for C14U C49G was 0.831. The value for C15A U27G was 0.653; that for C15A G68U was 0.309. In the case of C15G G82U, the self-cleavage was found to be 0.229. With C15A U60G, the self-cleavage was found to be 0.731. For the variant C15G C63G, the self-cleavage was 0.475.

On to C15G C63U, for which the self-cleavage was 0.394. The value for C15G C86G was 0.317; that for C15G U37G was 0. The value for C15G U37C was 0.875; that for C15G U37A was 0. Consider C15A A16C, for which the self-cleavage was 0.415. On to C15A G73U, for which the self-cleavage was 0.095.

Consider C15G C24A, for which the self-cleavage stood at 0.482. The value for C15U A45C was 0.277.

Regarding C15A A70C, the self-cleavage was 0.554. Take C15G G73C: the self-cleavage is 0.231. Regarding C14U C44A, the self-cleavage turned out to be 1.01.

With C15A C44G, the self-cleavage was 0.431.

Turning to C15A C44U, the self-cleavage was found to be 0.426. As for C15A C33A, the figure is 0.256; as for C15A G35C, 0.138; as for C15A G35A, 0.405.

In the case of C15U C44U, the self-cleavage was determined as 0.707. Consider C15G A70G, for which the self-cleavage amounted to 0.554. The value for C14U C64G was 1.24; that for C14U C33U was 0.975; that for C15G A16G was 0.665. The value for C15A G76C was 0.767; that for C14U G40U was 0.724; that for C14U G40A was 1.17. As for C15A C48A, the figure is 0.597; as for C15A U37C, 0.665; as for C15U C26A, 1.05. As for C15G C62U, the self-cleavage is 0.665. As for C14U C36G, the figure is 0.322. The value for C14U G29U was 0.0739; that for C15A G40U was 0.352; that for C15A G40C was 0.0875. As for C14U G52U, the self-cleavage amounted to 1.04. On to C15A A83C, for which the self-cleavage came out at 0.196. The value for C15G C57A was 0.703; that for C15G C22A was 0.0504; that for C15G C22G was 0.119.

As for C15A U69A, the self-cleavage was 0.506. Turning to C15A U69G, the self-cleavage is 0.492. For C15U G17U, the self-cleavage was 0.415. The value for C14U U72A was 0.745; that for C14U U72G was 0.598; that for C15U C19G was 0.0997.

As for C15U C19U, the self-cleavage is 0.0767. The value for C15A A56U was 0.743; that for C15G C84A was 0.519. C15A C24G: the self-cleavage was 0.032. As for C15A G80A, the figure is 0.831; as for C15A G82A, 0.369; as for C15A G82C, 0.415. Regarding C14U G81U, the self-cleavage worked out at 0.729.

For the variant C15A G31U, the self-cleavage stood at 0.0339.

Regarding C15G G68C, the self-cleavage was found to be 0.511. Consider C15G C19G, for which the self-cleavage amounted to 0. The value for C15A U79G was 0.831; that for C15U C24U was 0.717. As for C15G G28U, the figure is 0.0437; as for C15G G81U, 0.297; as for C15A C21G, 0. The value for C15G G76U was 0.831. Regarding C14U C24G, the self-cleavage came out at 0.121. As for C14U C24A, the figure is 0.76; as for C14U C41A, 1.06; as for C14U C41G, 1.06. Turning to C15G U23C, the self-cleavage was 0.332.

As for C15G U23A, the self-cleavage stood at 0.68. The value for C15G G55U was 0.677.

For the variant C15G U46A, the self-cleavage was 0.399.
